The supplement of paper PMC9170038

Tested on: MS2 coat protein
Test: apparent KD of MS2 coat protein; designed switch direction (-1 OFF switch, 1 ON switch): -1; higher = weaker reporter binding
In short: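 An oligonucleotide input, 200 uM small-molecule ligand, or no input was present during titration of SNAP-549-labelled MS2 coat protein, which was doubled from 0.7 or 1.5 nM to 3 µM. Designed RNA switches had been transcribed on Illumina chips by stalled E. coli RNA polymerase. Apparent KD per design is the median over clusters of curves fitted to normalised cluster fluorescence.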

[1] = input ligand: microRNA oligo, concentration not stated
[2] = Eterna round: R95, input ligand: microRNA oligo, concentration not stated

Row | Sequence | apparent KD of MS2 coat protein (input ligand: FMN 200 uM) [µM] | apparent KD of MS2 coat protein (input ligand: none) [µM] | further results
1 | AUAAUGUGAGGAUAUAUGAAUCACGGUGAUACACCGUGAAGAUAGAAGGUACAUGAGGAUCACCCAUGUAGGGC [Mod of Anonveat 14 - Jieux - Exclusion 4] (Eterna round: R97, puzzle: Exclusion 4) | 0.0395 | 0.0423 | –
2 | AUAAUGUGAGGAUAUCAGUCGACUAGCUUCGGCUAGUCGACUGAGAAGGCACAUGAGGAUCACCCAUGUGUUUC [E4/15-A1] (Eterna round: R97, puzzle: Exclusion 4) | 0.0417 | 0.0187 | –
3 | AUAAUGUGAGGAUAUCAGUCGUACAGCCUCGGCUGUACGACUGAGAAGGCACAUGAGGAUCACCCAUGUGGUCA [E4/5-A2] (Eterna round: R97, puzzle: Exclusion 4) | 0.156 | 0.59 | –
4 | AUAAUUAGUUCAGGAUAUCAGCACGUUUAGUGCUGAGAAGGGAACAUGAGGAUCACCCAUGUGAUCAAUAUUAUAAUUUUAAUU [ENG1/12-B2] (Eterna round: R96, puzzle: Exclusion NG 1) | 0.21 | 1.1 | apparent KD of MS2 coat protein [1]: 0.754 µM
5 | AUACAACAUGAGGAUCACCCAUGUGAGGAUAUGCGAUACAUCAUCAUCAUCAUCAAUCGCAGAAGGCACAACAU [Different] (puzzle: Exclusion 1) | – | – | apparent KD of MS2 coat protein [2]: 0.0523 µM
6 | AUACGUCAAGUCAGGAUAUAUACCGCGACUACGGCGUAGAAGGGACAUGAGGAUCACCCAUGUAAAAGGGCAAA [Ceerrilaza] (puzzle: Brourd's mod of Exclusion 4) | – | – | apparent KD of MS2 coat protein (Eterna round: R95, input ligand: FMN 200 uM): 0.0377 µM; apparent KD of MS2 coat protein [2]: 0.0365 µM; apparent KD of MS2 coat protein (Eterna round: R95, input ligand: none): 0.0345 µM
7 | AUAGGAGUAGGAUAUUCAGUUCGACACAUGAGGAUCACCCAUGUCGCUGUGGCCGGGCACGGAGAAGGAUUGUUGU [Eternabot (L1) Solution 15] (Eterna round: R97, puzzle: Exclusion 5) | 0.0391 | 0.0363 | –
8 | AUAGUGUGAGGAUAUCGGACCAGUCCAGUUAGGAGCAGGAUCGAGAAGGUACAUGAGGAUCACCCAUGUGACCA [Eternabot (L2) Solution 8] (Eterna round: R97, puzzle: Exclusion 4) | 0.0308 | 0.0168 | –
9 | AUAUUAAGUGUGAGGAUAUGCUGGUCCUUGGAUCAGCAGAAGGCACAUGAGGAUCACCCAUGUAAUAUAUUUAA [Mat - Exclusion 4 - JL Mod - D48] (puzzle: Brourd's mod of Exclusion 4) | – | – | apparent KD of MS2 coat protein [2]: 0.0872 µM
10 | AUAUUAAUAGUAAGGAUAUGCGUGUAUGUAGUUAUGCAGAAGGUACAUGAGGAUCACCCAUGUAUUAAUGUGUG [LRO-BmodExc4-06-Oppy's Opus] (Eterna round: R97, puzzle: Brourd's mod of Exclusion 4) | 0.0216 | 0.0173 | –
11 | AUAUUGCGAGGAUAUACAUGAGGAUCACCCAUGUGGUAGUAGAUACGGUAGGGCUAGUGUAGAAGGUGUUAUGA [EX3 #14] (Eterna round: R97, puzzle: Exclusion 3) | 0.0802 | 0.172 | –
12 | AUCAACGUGUUAGGAUAUAAGCCUAAAAGAGACUUAGAAGGGACAUGAGGAUCACCCAUGUCGGGCGCCCAAGCUAUGCGACCU [Eternabot solution 4] (Eterna round: R96, puzzle: Exclusion NG 1) | 0.0328 | 0.0263 | apparent KD of MS2 coat protein [1]: 0.0174 µM
13 | AUCAUGAUAGGAUAUACAUGAGGAUCACCCAUGUCCCACCCGUUACUUCUGGCCCUUUGUAGAAGGAUCGUCAA [Exy#21] (Eterna round: R97, puzzle: Exclusion 3) | 0.0222 | 0.0268 | –
14 | AUCAUGUAAGGAUAUCUUACAUGUAUCGAAAGAUACAGUUAAGAGAAGGUACAUGAGGAUCACCCAUGUAUAAC [Ex4-3: 35] (puzzle: Exclusion 4) | – | – | apparent KD of MS2 coat protein [2]: 0.0252 µM
